This note sets out measurements from a protein production outcome set (Wang et al. 2014).

The nature of this data set: label from the status in PepcDB records.
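Also: failed if final PepcDB status was selected cloned or expressed and not failed if soluble or beyond.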

For the sequence “MNESSTHDSVADDPTEVSTDTVLDIALSLFSELGFSDAKLEAIAKKSGMSKRMIHYHFGDKRGLYICCLEEAVRRLRPTAEEMYLASAVPVEGVRTIVEAVFHRYVQHPEAVRMLQMENLHHYGKVAEASPLSDQSAITLQLDRLLMLGQDAGAFRPGISAQDVFTLIASIAVFRINSRSTTLNLYGIDMMNGDNTDGMRRMAVDTVLAFLTSNLKSADEDSYLSRPLLSTVTEHVDEEGSYEVAADPFS”, the protein production result was “not failed”.
Next, “MNEVKSLTTAEGPTKLLNLQLKDLGDSLIDVALWGKLAEDVYSNIKSQPSGPVFSSWKFDEDFAISRHSSKLKIYNKSLYPFSTTRDSSVSRSFNCFGETPQELLDLGGRNYVFKIMVKHEAKHNQSSTYKMISLTDVLNVIQSFFESASTLNDIEQEIITVSGNSVGTSIGTTTQAEINFVDVDNLDNNEDNAYYISTPKPITKRFLATSKHVQQSSTKP”: “not failed”; “MNEYLQAVLMILLTIVLYYVSKKIQDKYNNPLLNPALIASIAIIIVLLVCGVSYKGYMKGGTWINHVLNATVVCLAYPLYQNKKKIKKYLTIIFTSVLTGVVLNFVLVFTTLKIFGYSKDTIVTLLPRSITAAVGIEVSQELGGTDTITVLFIITTGLIGSILGSMLLRMGGFKSSIARGLTYGNASHAFGTAKALELDIESGAFSSIGMILTAVISSVLIPVLILLFY”: “failed”.
Next, “MNFAGQPLQDGSLPRIGTGKDALSLLDLSDFVARHWRFIGLVTVFVMALALAYLAAAPSRYTAQTDMIIDTKRVTWTQSEFATENRMVEDASVESEIETTKSEKVALQVIRKLRLTEDPEFIGSGTGLRNRLYQLLDLDAPISPQLTPSELEARALSRVKDNLKVMRLGRSYIEQISFTSLVPEKAAVIANAFADAYIEDQIQAKFEATRRASEWLQQRIGELRQQASDAYRAVQDFKSSNSIIVSGDGKLASDLELDQLGISLAKARAETSQARAKLERITRVLELRQEKGSNEIPDPVVTDALSNPVITRLRQQYLDNQSKEAEWSSRYGAEHQAARNLRSEMANVRQAIWDEVSRIAESYRSEVQIAKTQEDSIDKRMIEVFQSSTGTRQAQVHLRELETAATTYRGIYETFLTRFTQSVQQQSFPSTEARVVTLASPPSVRSSPKTNLTLALAAISGLTLGILGAFARDRMSRRIHTRAQLETILGTSCLAIIPSFANPALTSQTSTSSSRLSRAVKQLLRKRDHVPGQPRERSQANSAAFEKINDVAPFSATAEALRHIKVAIDLSPGGGRVIGIVSARPGEGKTTICASFAAFLARSGARTLLIDGDLRNPSLSRTLGYKNKRGLLELVADQLQLSDLVVTDPVYKFDFLPSATEMKPINSADVLTSPSVKRMLKSAAGNYDYIIVDLPPILPVVDVKAAAHLFDAFVLVVEWGATMSDEVRSAVGVSRSLSERLLGAVLNKTDEDVMRRLEGYSYRSHHYYYYGAPKHENEQTKN”: “failed”.
Next, “MNFEYPDGATPLDSDEAEGLLLTHITSRGELDRWEQENIAEGEAWAFGRRQKNILSEAFIRRLHKRMFGHVWRWAGEFRRSDKNIGVTWWQVPIELRKLCDDVVAWIAFGTYPPDEIAVRFHHRLVAIHPFANGNGRHARTMTDLLLVQALQRPRFTWGSGNLVSVGDCRRYYIEALRAADRHDYQLLLEFVRMLEHHHHHH”: “failed”; “MNFIIEPGSLADIDELERLYDELNDHLSATINYPGWIKGIYPVRENAAAGVDDNSLFVARCDGRIAGSVILDHQPEKAYENIVWKIDADYSYIFVVRTFVVHPSFLQMGVGHALMDFSLELALKSEMKSIRLDVYEKNLPAISLYEKCGFEYIDTVDLGLGHYGLDWFKLYEKVILEHHHHHH”: “not failed”.
As for “MNGARKWFFPDGYIPNGKRGYLVSHESLCIMNTGDETAKIRITFLFEDSKPVVHEVEISPMKSLHLRLDKLGIPKCKPYSIMAESNVPVVMQLSRLDVGKNHYTLMTTIGYWEE”, the protein production result is on record as “not failed”.
Next, “MNHDLLTNNPLLIVSAIFVFFILLEIACSAFGQPRGQRRDVLIEAVGSSLLLGVTFPLVMWASGALMQLSLPEAKGALAQIPWVLGLLLFLVFDDMTQYWWHRLTHRVPALYALHRAHHSAPYMSIRIVYRNNSFYYLLMPGIWFSGVLIYLGLAPVYYGYLILKMTVIFAAHSSVAWDDKLYRIGFLRPLMWLLERVFSTPSTHSAHHGLSAEDGVTHYKGNFGNLLFLWDVLFGTAKITRRRPVAYGIEHLAPVSWTQELFWPLVRSRKARASAVARVEGALPANPASQG”: “failed”.
Next, “MNHYFRAIGSMLILVYSTFFAIFFIDKVFVNIMYFQGMFYTQIFGIPVLLFLNLMVILLCIIVGSVLAYKINQQNHWLKDQIERSIEGQTVGINDQNIELYNETIELYQTLVPLNQEVHKLRMKTQNLTNESYNINDVKVKKIIEDERQRLARELHDSVSQQLFAASMMLSAIKETELKAPLDQQIPVLEKMIQDSQLEMRALLLHLRPIGLKDKSLGEGIKDLVVDLQKKVPMKVVHDIEEFKVPKGIEDHLFRITQEAISNTLRHSKGTKVTIELFNREEYLLLRIQDNGKGFNVDDKVEQSYGLKNMRERALEIGATFHIVSLPDAGTRIEVKAPLNKEDSNAD”: “failed”; “MNIAANPHVQADQTVYLKDYQKPSFLVESINLDIQVYDDHTVVESTLVMNRQTAGDLVLLGRDLELKSIVLNGKNLEVGQYQLDHEQLVITHAPDQVILNTQVVIHPESNTQLEGLYKAGGDLFVTQNEPEGFRKITFYPDRPDVLAEFTTRVEADKKFPVLLANGNLLETGTVGENRHFAIWQDPTKKPSYLFACVIGDLAVLKDHYTTSEGREVALEIYAIEKDIPKCHIAMEALKHSMRWDEEHYGRPYDLDNYMIVAVSQFNMGAMENKGLNIFNTSCVLADEEYTTDAAIMRVQSVIAHEYFHNWTGNRITCRDWFQLCLKEGLTVFRDQSFSEDLQSAAVQRIDDVAVLKAHQFPEDAGPLSHPPRPDHFVEINNFYTATVYEKGAEINRMMSTLLGKEKFRQGTDEYFHRYDGQAVTVEDWVNALSAGSGVDLSNFLTWYNQPGTPKLEAKGEYDEQNHVYRLSFKQSLKVHPKYPNLKAVPVPVALALFNAETGEQYTLHCQDLFVNEVQDGVYLFDQDTATIEFSNVTQKPVVSLLRNFSAPVNLDFDYSDDELAFLIEYETNGFNQWQASQTLLERILLKDHAVEPYIKAIKNTLPDLVKKDPLLASRLFDVPTEGYLGSRIDHDYKPEAIQEKRNSVLETLARELGAFWKETYLSLDPSLQNDFSQAMGERALKNIMLSMMARQGDDSVFDLAYTQYSQTKNMSERLGALRVLVWNDAPQAQNALDDFYRRYKDEALSLDQWFMVQAANPNATAETIKALTEHPDYDLGTPNRVRSVSGGLSNNPVNAWSFGVEHYIGLAEYFDEKNPILGSRLLQVLSRWYTLAEPQRGNVQNALKDLQPHVKSKNVKETLNSILSV”: “failed”; “MNIDEIERKIDEAIEKEDYETLLSLLNKRKELMEGLPKDKLSEILEKDRKRLEIIEKRKTALFQEINVIREARSSLQK”: “not failed”.
Next, “MNIDLTPYYAEPGEQPFSARRMAMPWRNHVPLSPEQIPAGWQTLKQQSVPARKRLLYLHIPFCATHCTFCGFYQNKLRDDSTATYTRYLLQELAMEADSPLHQSAPIHAVYFGGGTPTALAADELSQIIRAIRTSLPLAPDCEITVEGRAMDFDDERIDACLDAGANRFSIGIQTFDTRIRQRMARTSDKQQSIRFLERLCGRDRAAVVCDLMFGLPGQTPEIWREDLAIVSDLPLDGVDLYALNLLPTTPLAKAAENQRVALPDVVARRDFYRTGAAFLADSGWHQLSNSHWARTTRERNLYNLLIKQGADCLAMGSGAGGNINGQAYMMERSLERYYQQIDQGQKPIMMMTPASSTGPWQHQLQAGIEVGRIKLPQLTQHARELQPLLSQWHQAGLTCDDSTCLRLTNDGRFWANNLMQALQQIIPQLNAEEHAHLEHHHHHH”: “not failed”; “MNIEKTRFCINRKIAPGLSIEAFFRLVKRLEFNKVELRNDMPSGSVTDDLNYNQVRNLAEKYGLEIVTINAVYPFNQLTEEVVKKTEGLLRDAQGVGARALVLCPLNDGTIVPPEVTVEAIKRLSDLFARYDIQGLVEPLGFRVSSLRSAVWAQQLIREAGSPFKVLLDTFHHHLYEEAEKEFASRIDISAIGLVHLSGVEDTRPTEALADEQRIMLSEKDVMQNYQQVQRLENMGYRGIYAFEPFSSQLASWSEAEIEEQINRSVSLLLQ”: “not failed”.
